± gives the standard deviation of the averaged measurements.
Tested on: Saccharomyces cerevisiae
Assay: protein stability index of tFT-peptide fusion (C-terminal peptide) (PSI (0-1 scale)); higher = more stable (slower turnover)
Details: genetic background: cdc34-1; temperature: 37 C
Procedure: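 MPS profiling in S. cerevisiae of the tFT-X12 degron library: putative degron peptides plus stable controls, 12 aa, fused to the C-terminus of a sfGFP-mCherry timer. Cells are FACS-sorted into 8 mCherry/sfGFP bins and deep-sequenced. PSI runs from 0 (unstable) to 1 (stable). Backgrounds are wild type, das1Δ and doa10Δ at 30 °C, and wild type, das1Δ, cdc34-1 and cdc53-1 at 37 °C; 2-3 technical replicates each.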
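Further: PSI is a weighted mean of sequencing reads over stability bins, variants kept only with over 10 reads, mCherry proximal and sfGFP distal, peptide attached via GGGS linker.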

In the case of PFPTPPPIPRSP, the protein stability index is reported as 0.665 ± 0.012.

Same assay, conditions: genetic background: cdc53-1; temperature: 37 C

Going from LIICRSFLCKVR to LILIVVVAGSVG, the protein stability index rises from 0.2557 ± 0.0016 to 0.392 ± 0.088.

Compared with LIMIRLLYLRLI, LINHSWLLLSVL is higher in protein stability index: 0.153 ± 0.042 for the first, 0.432 ± 0.036 for the second.

First: LLCSLGFRFSLF
Second: LLFGCLIRIGCS
The protein stability index of the first is higher: 0.728 ± 0.011 for the first, 0.307 ± 0.012 for the second.

LLILSVRPFVFV and LLLALLFWPCPI are within error of each other in protein stability index: 0.52 ± 0.0072 for the first, 0.526 ± 0.0074 for the second.

Going from LLLIGISFLIFY to LLLTAIRVLRMH, the protein stability index rises from 0.287 ± 0.0035 to 0.7045 ± 0.0038.

Compared with LLLVCYSTFIVA, LLLVPLLAFSAS is higher in protein stability index: 0.359 ± 0.045 for the first, 0.63 ± 0.029 for the second.

First: LLMFWLSIWFWG
Second: LLPYSLSLALRA
The protein stability index of the first is lower: 0.292 ± 0.0066 for the first, 0.391 ± 0.015 for the second.

First: LLSFSQLGYFVL
Second: LLSGHFRLLLAF
The protein stability index of the first is higher: 0.716 ± 0.012 for the first, 0.149 ± 0.007 for the second.

Compared with LLVCLGYFLFLG, LNVEEGGGLENV is higher in protein stability index: 0.372 ± 0.031 for the first, 0.727 ± 0.023 for the second.

Going from LPHPLPFCFSLY to LPLLLFYLPIIW, the protein stability index falls from 0.7672 ± 0.0058 to 0.479 ± 0.0079.

Compared with LPPFLSSLPSSP, LPPSPPAPLSRL is higher in protein stability index: 0.769 ± 0.016 for the first, 0.8918 ± 0.0015 for the second.

Going from LQIKSFTSQRLA to LRFMLLSFLVIL, the protein stability index falls from 0.698 ± 0.0074 to 0.207 ± 0.015.

LRFVCALGYCVW and LRNVPCLVFFWV are within error of each other in protein stability index: 0.645 ± 0.019 for the first, 0.61 ± 0.025 for the second.

Going from LRSVLGWGLFLA to LSCFCLFCLSFC, the protein stability index rises from 0.494 ± 0.014 to 0.678 ± 0.026.

Going from LSFLALLLFFRI to LSGIILGWSVSG, the protein stability index rises from 0.22 ± 0.061 to 0.76 ± 0.0077.

Compared with LSLVYFAALFSF, LSTPPLLPTPPS is higher in protein stability index: 0.529 ± 0.033 for the first, 0.7296 ± 0.0032 for the second.

First: LSVMKLFVMVGP
Second: LSVSLFPIRYVG
The protein stability index of the first is lower: 0.493 ± 0.027 for the first, 0.76446 ± 1.3e-05 for the second.

First: LVVIYPLLSSPV
Second: LWFFVGFAVYGG
The protein stability index of the first is higher: 0.567 ± 0.019 for the first, 0.438 ± 0.018 for the second.

Compared with LWFRGGYLFFVV, LWVTRVYCLLVC is lower in protein stability index: 0.444 ± 0.013 for the first, 0.158 ± 0.03 for the second.

First: LYIQWVSRWSVQ
Second: LYLCLVSPVVVL
The protein stability index of the first is higher: 0.664 ± 0.083 for the first, 0.172 ± 0.0061 for the second.

First: LYLGCVLFVLFR
Second: LYSVLWFCFPLV
The protein stability index of the first is lower: 0.151 ± 0.024 for the first, 0.5638 ± 0.0037 for the second.

Going from LYVLNILSFVCV to MALAVRVVKCGA, the protein stability index rises from 0.25 ± 0.0041 to 0.376 ± 0.0062.

MCRMYELYVTSS and MIILGFILYFFW are within error of each other in protein stability index: 0.568 ± 0.079 for the first, 0.533 ± 0.03 for the second.

First: NAPSAIQKNKKC
Second: NDSSWEVSLMVG
The protein stability index of the first is lower: 0.6886 ± 0.0037 for the first, 0.763 ± 0.021 for the second.

Going from NECLSSKWLRIC to NFKELMEKSKYR, the protein stability index rises from 0.661 ± 0.032 to 0.752 ± 0.029.

NLTAIIYTLVVD and NQIIRLIVGLLC are within error of each other in protein stability index: 0.466 ± 0.23 for the first, 0.601 ± 0.017 for the second.

PCLLRYLVHPFP and PCPAPRPPSPSA are within error of each other in protein stability index: 0.765 ± 0.021 for the first, 0.721 ± 0.05 for the second.

Compared with PDCRPPLVRCLL, PFFCFLLFCFSL is lower in protein stability index: 0.902 ± 0.071 for the first, 0.498 ± 0.0033 for the second.

First: PFFLLAGITVAC
Second: PFLCLPFLLVSR
The protein stability index of the first is lower: 0.0625 ± 0.026 for the first, 0.4056 ± 0.0025 for the second.

With PFPTPPPIPRSP the protein stability index was 0.7375 ± 0.0026.
